Tests used:
[1] = molecular target: Nterm1 (position 1, -----MDHSHH); assay: potentiometry
Tyr11 (position 11, …--) = assay: potentiometry; conditions: metal-free peptide

MDHSHHMGMSYMDS
pKa ([1]; 298 K, 0.1 mol dm^-3 (KNO3), mononuclear Ag+ complex ([AgLH2] to [AgLH]), Ag+/peptide ratios 1:1, 1:2 and 2:1): 7.33
pKa ([1]; 298.0 ± 0.2 K, 0.10 M (KNO3), none (titration with 0.1 M KOH under argon), metal-free peptide): 7.63
pKa ([1]; metal-free peptide, cited from earlier work): 7.46
pKa (Tyr11 (position 11, …--); 298.0 ± 0.2 K, 0.10 M (KNO3), none (titration with 0.1 M KOH under argon)): 9.64
pKa (Tyr11 (position 11, …--); cited from earlier work): 9.84

Reference: PMC8953729
